Test results: paper PMC3564530 (Molecular Biology of the Cell, 2013)

Molecular target: recombinant his6-tagged linear penta-Ub (Ub5) (UniProt P0CG48)
Assay: pull-down

Sequence of recombinant his6-tagged linear penta-Ub (Ub5) (P0CG48 1-380): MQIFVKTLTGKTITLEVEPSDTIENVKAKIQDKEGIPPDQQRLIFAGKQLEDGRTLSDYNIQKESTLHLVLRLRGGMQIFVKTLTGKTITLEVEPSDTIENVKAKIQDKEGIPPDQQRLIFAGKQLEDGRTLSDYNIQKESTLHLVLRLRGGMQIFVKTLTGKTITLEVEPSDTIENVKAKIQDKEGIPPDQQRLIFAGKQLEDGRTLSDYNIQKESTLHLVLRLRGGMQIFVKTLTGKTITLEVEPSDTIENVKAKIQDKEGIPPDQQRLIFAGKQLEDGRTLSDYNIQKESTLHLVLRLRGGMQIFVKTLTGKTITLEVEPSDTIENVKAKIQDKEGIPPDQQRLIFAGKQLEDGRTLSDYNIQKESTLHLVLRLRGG

B1: recombinant purified GST-CIN exon 2 (domain or fragment)
chain: TGSLAAAVETASGRQALVVGKPSPYMFECITENFSIDPARTLMVGDRLETDILFGHRCGMTTVLTLTGVSRLEEAQAYLAAGQHDLVPHYYVESIADLTEGLED
  binding result: binds
